T1: human NaPi2b on OVCAR3 human ovarian cancer cells (human, UniProt O95436 1-690)
T1 construct: also called SLC34A2; sodium-dependent phosphate transport protein 2B
T1 sequence: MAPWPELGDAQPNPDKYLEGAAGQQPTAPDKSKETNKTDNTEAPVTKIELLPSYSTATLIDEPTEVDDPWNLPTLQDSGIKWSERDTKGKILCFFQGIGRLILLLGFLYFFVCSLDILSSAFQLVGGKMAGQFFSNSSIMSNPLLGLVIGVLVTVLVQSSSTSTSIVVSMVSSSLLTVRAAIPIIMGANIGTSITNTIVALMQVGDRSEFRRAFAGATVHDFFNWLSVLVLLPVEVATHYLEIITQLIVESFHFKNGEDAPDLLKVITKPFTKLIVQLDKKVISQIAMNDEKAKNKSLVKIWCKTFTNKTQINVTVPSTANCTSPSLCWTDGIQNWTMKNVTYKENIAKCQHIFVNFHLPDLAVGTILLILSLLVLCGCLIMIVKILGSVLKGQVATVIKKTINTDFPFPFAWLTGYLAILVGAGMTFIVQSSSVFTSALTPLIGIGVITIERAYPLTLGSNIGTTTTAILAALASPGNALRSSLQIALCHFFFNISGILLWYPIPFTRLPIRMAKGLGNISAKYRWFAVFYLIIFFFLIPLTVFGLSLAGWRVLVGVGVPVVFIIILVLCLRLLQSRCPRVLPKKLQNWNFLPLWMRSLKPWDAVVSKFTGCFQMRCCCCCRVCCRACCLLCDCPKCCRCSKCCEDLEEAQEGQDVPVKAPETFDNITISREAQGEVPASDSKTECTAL

B1: XMT-1535 Conjugate 8b-3, DAR 6.4 (antibody, human IgG1, kappa)
heavy: not shown
light: DIQMTQSPSSLSASVGDRVTITCSASQDIGNFLNWYQQKPGKTVKVLIYYTSSLYSGVPSRFSGSGSGTDYTLTISSLQPEDFATYYCQQYSKLPLTFGQGTKLELKRRTVAAPSVFIFPPSDEQLKSGTASVVCLLNNFYPREAKVQWKVDNALQSGNSQESVTEQDSKDSTYSLSSTLTLSKADYEKHKVYACEVTHQGLSSPVTKSFNRGEC
modifications: STING agonist linker-drug on cysteine thiols of the reduced antibody, positions not given; STING agonist linker-drug (Compound 7) joined through maleimide to cysteine thiols of the TCEP-reduced antibody, positions not given; DAR 6.4 per antibody
B2: XMT-1535 (antibody, human IgG1, kappa)
heavy: not shown
light: DIQMTQSPSSLSASVGDRVTITCSASQDIGNFLNWYQQKPGKTVKVLIYYTSSLYSGVPSRFSGSGSGTDYTLTISSLQPEDFATYYCQQYSKLPLTFGQGTKLELKRRTVAAPSVFIFPPSDEQLKSGTASVVCLLNNFYPREAKVQWKVDNALQSGNSQESVTEQDSKDSTYSLSSTLTLSKADYEKHKVYACEVTHQGLSSPVTKSFNRGEC
notes: Unconjugated antibody, IgG1; also called anti-NaPi2b antibody; NaPi2b mAb
B3: XMT-1535 mIgG2a (antibody, V domains shown)
VH: QVQLVQSGAEVVKPGASVKMSCKASGYTFTGYNIHWVKQAPGQGLEWIGAIYPGNGDTSYKQKFRGRATLTADTSTSTVYMELSSLRSEDSAVYYCARGETARATFAYWGQGTLVTVSSG
VL: DIQMTQSPSSLSASVGDRVTITCSASQDIGNFLNWYQQKPGKTVKVLIYYTSSLYSGVPSRFSGSGSGTDYTLTISSLQPEDFATYYCQQYSKLPLTFGQGTKLELKR
notes: Unconjugated; variable domains are those of XMT-1535 by name only; also called XMT-1535 hIgG1-mIgG2a
B4: XMT-1535 mIgG2a Conjugate 32d, DAR 8.8 (antibody, V domains shown)
VH: QVQLVQSGAEVVKPGASVKMSCKASGYTFTGYNIHWVKQAPGQGLEWIGAIYPGNGDTSYKQKFRGRATLTADTSTSTVYMELSSLRSEDSAVYYCARGETARATFAYWGQGTLVTVSSG
VL: DIQMTQSPSSLSASVGDRVTITCSASQDIGNFLNWYQQKPGKTVKVLIYYTSSLYSGVPSRFSGSGSGTDYTLTISSLQPEDFATYYCQQYSKLPLTFGQGTKLELKR
notes: elsewhere called chimeric hIgG1-mIgG2a; the variable domains are those of XMT-1535 by name only

“And” between values parts separate entries of the source, which are not always exact repeats. Equal values may be shown once.

The EC50 is the concentration at which the effect is half-maximal.

This test has as its target T1, human NaPi2b on OVCAR3 human ovarian …. Nature of the test: flow cytometry on OVCAR3 cells, 1 h on ice, goat anti-human IgG-Alexa-647 detection, MFI; mean EC50. The protocol: OVCAR3 cells were grown to ˜80-95% confluency in RPMI 1640 medium supplemented with FBS (20%) and penicillin/streptomycin (1%). Cells were harvested and added to wells of a 96-well U bottom plate (50,000/well). The cells were pelleted (300×g, 5 minutes) and resuspended in solutions of test articles as indicated in Table 18 at concentrations ranging between 0.01 nM and 300 nM and incubated on ice for 1 hour.
(A flow cytometer gives signals particle by particle.)
Turning to B1, the concentration for a half-maximal effect (EC50) was 8.13 nM. Consider B2, for which the EC50 was 4.29 nM and 3.74 nM. Turning to B3, it took 4.13 nM to reach a half-maximal effect (EC50). Consider B4, for which the concentration giving a half-maximal response (EC50) is 2.99 nM.

Source of the values: patent publication US20250352662A1 (MERSANA THERAPEUTICS, published 2025).
